Results from article PMC6448596 (Cell reports, 2019).

Target: His-SUMO-WDR5(22–334) (human, UniProt P61964 22-334)
Assay: AlphaScreen or HTRF

ARTEVHLRKS [10-mer-Thr-FAM (ARTEVHLRKS-(Ahx-Ahx)(Lys-(5-FAM)))]: binds.
